The test system of test [1] is LPS-induced release of endogenous TNFα from human THP-1 macrophage cells. As to the kind of experiment: TNFα release (shedding) assay, functional screen of hybridoma supernatants. In kind it is cell-based. Conditions: supernatants of monoclonal 4H8 sub-clones; assay as in Example 5. The source says:
After 14 days of culture, supernatants of hybridoma cells were collected and—instead of being selected for iRhom2 binding antibodies—were subjected to an ELISA-based functional screen for iRhom2 activity-neutralizing antibodies. Since the crucial role of iRhom2 in TACE-mediated release of tumor necrosis factor alpha (TNFα) from macrophages is very well established (McIlwein et al., 2012, Adrain et al., 2012, Siggs et al., 2012), the human TNF-alpha DuoSet ELISA (R&D Systems, USA) was employed to compare the lipopolysaccharide (LPS)-induced release of endogenous TNFα from human THP-1 macrophage cells in the presence and absence of all 5280 peptide immunization-derived hybridoma supernatants.
In brief, on day 1, Nunc black MaxiSorp® 96-well plates (Thermo Fisher Scientific, USA) were coated overnight with 100 μl per well of mouse anti-human TNFα capture antibody (provided as part of the DuoSet ELISA kit) at 4 μg/m1 TBS at 4° C. […] Using an infinite M1000 PRO (Tecan Group, Switzerland) microplate reader, the fluorescence of each well was collected at an excitation wavelength of 435 nm and an emission wavelength of 555 nm.
In brief, cells of the hybridoma population 4H8 were counted and the dilution factor to end up with an average of two cells per well of 96-well plates was calculated. […]

The subject of another test is human iRhom2. Description: Peptide binding ELISA, binding specificity (Example 10), iRhom2 peptides. The note with it: antibody 3 μg/ml PBS; peptides coated at 10 μg/ml; normalized to IgM isotype control. As to the method: Another series of peptide binding ELISA experiments was conducted to address the specificity of the purified antibody 4H8-E3 of the invention, i.e. to question whether this antibody specifically recognizes peptides, in particular peptide 3, resembling the extracellular juxtamembrane region adjacent to the TMD1 of human iRhom2, or whether the antibody 4H8-E3 of the invention also binds to peptides reflecting the homologous region of the closely related family member human iRhom1.
In brief, on day 1, Nunc black MaxiSorp® 96-well plates (Thermo Fisher Scientific, USA) were coated overnight with 100 μl per well of single biotinylated peptides 1 to 4, Mix A consisting of peptides 1 to 4, single biotinylated peptides 1b to 4b, and Mix D consisting of peptides 1b to 4b at 10 μg/m1 PBS each (thus, the final concentration of each peptide in both mixes was 2.5 μg/m1) at 4° C. On day 2, peptide solutions were removed and MaxiSorp® plates were blocked with 300 μl per well of Pierce protein-free (TBS) blocking buffer (Thermo Fisher Scientific, USA) at room temperature for 1.5 hours. […] Using an infinite M1000 PRO (Tecan Group, Switzerland) microplate reader, the fluorescence of each well was collected at an excitation wavelength of 435 nm and an emission wavelength of 555 nm.
On the technique in general: ELISA stands for enzyme-linked immunosorbent assay.

B1: 4H8-E3: Mouse IgM monoclonal antibody against the human iRhom2 juxtamembrane domain adjacent to TMD1; HC VD SEQ ID NO 33, LC VD SEQ ID NO 40 (antibody, V domains shown)
VH: EVQLQQSGPELVKPGASVKISCKASGYTFTDYYMNWVKQSHGKSLEWIGDINPNNGGTSYNQKFKGKATLTVDKSSNTAYMEFRSLTSEDSAVYYCARRGYYGVDYWGQGTTLTVSS
VL: NIVMTQSPKSMSMSVGERVTLNCKASENVGTYVSWYQQKPEQSPKLLIFGASNRYTGVPDRFIGSGFATDFTLTISSVQAEDLADYHCGQSYSYPYTFGGGTKLEIK
modifications: IgM constant regions; antibody sequence
Regarding B1, the “inhibitory effect of sub-clone supernatants on LPS-induced release of TNFα from THP-1 cells” value in test [1] is recorded as “significantly interfere”. Further, the “binding to Mix A consisting of peptides 1, 2, 3 and 4” value with human iRhom2 is “Binding”.
